Laboratory results published in patent US20240116984A1 (UNIVERSITY OF NOTRE DAME DU LAC, published 2024).
Starred links: 1 amine or outer side, 2 acyl side, 3 side chain; linkers in the order of their positions; H or OH if unused. Non-standard residues stand in square brackets, D forms with d. Primed or numbered codes have the meaning given here. aTyr = Tyr with backbone N-amino (N-aminated amide nitrogen), NN([C@@H](Cc1ccc(O[*:3])cc1)C(=O)[*:2])[*:1]; aIle′ = Ile with backbone N-amino (N-aminated amide nitrogen), CC[C@H](C)[C@@H](C(=O)[*:2])N(N)[*:1]; aVal = Val with backbone N-amino (N-aminated amide nitrogen), CC(C)[C@@H](C(=O)[*:2])N(N)[*:1]; N(NH2)Lys = NCCCC[C@H](NN)C(=O)O

Target: Human tauP301L (0N4R), recombinant, N-terminal His tag (human, UniProt P10636 2-758)
Sequence (P10636 other isoform, or with tags, fused parts or gaps): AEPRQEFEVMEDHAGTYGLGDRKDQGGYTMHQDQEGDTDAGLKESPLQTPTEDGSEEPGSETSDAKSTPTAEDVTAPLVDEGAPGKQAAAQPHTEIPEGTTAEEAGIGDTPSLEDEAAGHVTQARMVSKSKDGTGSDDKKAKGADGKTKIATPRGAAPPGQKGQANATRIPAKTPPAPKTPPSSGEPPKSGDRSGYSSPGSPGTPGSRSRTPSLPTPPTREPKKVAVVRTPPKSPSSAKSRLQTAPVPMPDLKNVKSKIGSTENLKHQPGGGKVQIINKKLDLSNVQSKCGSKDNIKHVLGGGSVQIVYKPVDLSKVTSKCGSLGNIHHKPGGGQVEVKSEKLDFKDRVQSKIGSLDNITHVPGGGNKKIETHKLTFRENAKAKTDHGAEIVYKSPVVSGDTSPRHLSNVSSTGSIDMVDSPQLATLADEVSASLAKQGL
Experiment: cell-based or functional assay

end-point ThT fluorescence of heparin-induced tau aggregation (Tau 10 µM: Inhibitor 20 µM, 48 h) | fibril capping IC50 in cells (mature tauP301L fibrils incubated 36 h with inhibitor, then HEK293 tau-RD(LM)-YFP cells) | Binder
≤ 50% | – | Ac-[aVal]QIVYK-NH2 (SMILES CC[C@H](C)[C@H](NC(=O)[C@H](CCC(N)=O)NC(=O)[C@H](C(C)C)N(N)C(C)=O)C(=O)N[C@H](C(=O)N[C@@H](Cc1ccc(O)cc1)C(=O)N[C@@H](CCCCN)C(N)=O)C(C)C) [Compound 5, Ac-aVal-Gln-Ile-Val-Tyr-Lys-NH2]
≤ 50% | ~5 µM | Ac-VQI[aVal]Y[N(NH2)Lys]-NH2 (SMILES CC[C@H](C)[C@H](NC(=O)[C@H](CCC(N)=O)NC(=O)[C@@H](NC(C)=O)C(C)C)C(=O)N(N)[C@H](C(=O)N[C@@H](Cc1ccc(O)cc1)C(=O)N(N)[C@@H](CCCCN)C(N)=O)C(C)C) [Compound 13, Ac-Val-Gln-Ile-aVal-Tyr-aLys-NH2]
≤ 50% | – | Ac-[aVal]Q[aIle′]INK-NH2 (SMILES CC[C@H](C)[C@H](NC(=O)[C@H]([C@@H](C)CC)N(N)C(=O)[C@H](CCC(N)=O)NC(=O)[C@H](C(C)C)N(N)C(C)=O)C(=O)N[C@@H](CC(N)=O)C(=O)N[C@@H](CCCCN)C(N)=O) [Compound 4, Ac-aVal-Gln-aIle-Ile-Asn-Lys-NH2]
≤ 50% | ~5 µM | Ac-VQ[aIle′]V[aTyr]K-NH2 (SMILES CC[C@H](C)[C@@H](C(=O)N[C@H](C(=O)N(N)[C@@H](Cc1ccc(O)cc1)C(=O)N[C@@H](CCCCN)C(N)=O)C(C)C)N(N)C(=O)[C@H](CCC(N)=O)NC(=O)[C@@H](NC(C)=O)C(C)C) [Compound 12, Ac-Val-Gln-aIle-Val-aTyr-Lys-NH2]
≤ 50% | – | Ac-VQ[aIle′]INK-NH2 (SMILES CC[C@H](C)[C@H](NC(=O)[C@H]([C@@H](C)CC)N(N)C(=O)[C@H](CCC(N)=O)NC(=O)[C@@H](NC(C)=O)C(C)C)C(=O)N[C@@H](CC(N)=O)C(=O)N[C@@H](CCCCN)C(N)=O) [Compound 2, Ac-Val-Gln-aIle-Ile-Asn-Lys-NH2]
≤ 50% | – | Ac-VQ[aIle′]VYK-NH2 (SMILES CC[C@H](C)[C@@H](C(=O)N[C@H](C(=O)N[C@@H](Cc1ccc(O)cc1)C(=O)N[C@@H](CCCCN)C(N)=O)C(C)C)N(N)C(=O)[C@H](CCC(N)=O)NC(=O)[C@@H](NC(C)=O)C(C)C) [Compound 6, Ac-Val-Gln-aIle-Val-Tyr-Lys-NH2]
